Data published in paper PMC3795262.
pKd: −log10 of the molar value.

Molecular target: Full-length recombinant human TSG-6 (secreted product of tumor necrosis factor-stimulated gene-6) (human) (UniProt P98066)
Test: not stated; preliminary results, data not shown

Chain of UniProt P98066 (P98066 18-277): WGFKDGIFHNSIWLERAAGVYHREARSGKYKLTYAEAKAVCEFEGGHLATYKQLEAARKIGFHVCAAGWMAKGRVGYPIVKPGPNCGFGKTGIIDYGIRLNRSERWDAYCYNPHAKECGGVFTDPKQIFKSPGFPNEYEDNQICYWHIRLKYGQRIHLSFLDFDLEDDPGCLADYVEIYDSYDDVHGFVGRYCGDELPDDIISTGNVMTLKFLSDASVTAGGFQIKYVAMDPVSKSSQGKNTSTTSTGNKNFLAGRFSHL

Substance: Inter-α-inhibitor (from UniProt P19827 35-672; P19823 55-702) (complex)
- pKd: 8.00
